Molecular target: HLA-B*44:05 (Homo sapiens, UniProt P01889, A223V/A65T/A93T/A95T/D201E/D98Y/E176V/E187L/E204Q/E69K/G107R/H137Y/K202T/L105A/L119I/N104T/N87E/Q56L/Q94N/R106L/R155S/R180D/S101N/S121R/S35A/S48T/T118I/V36M/W191S/Y91S)
Assay: MHC binding assay (UV-ligand exchange, β2m ELISA, peptide exchange yield)
Details: binding to HLA-B*44:05
Excerpt: Candidate peptides for T cell-based therapies according to the present invention were further tested for their MHC binding capacity (affinity). The individual peptide-MHC complexes were produced by UV-ligand exchange, where a UV-sensitive peptide is cleaved upon UV-irradiation and exchanged with the peptide of interest as analyzed. Only peptide candidates that can effectively bind and stabilize the peptide-receptive MHC molecules prevent dissociation of the MHC complexes. To determine the yield of the exchange reaction, an ELISA was performed based on the detection of the light chain (β2m) of stabilized MHC complexes. The assay was performed as generally described in Rodenko et al. (Rodenko et al., 2006)
96 well MAXISorp plates (NUNC) were coated over night with 2 μg/ml streptavidin in PBS at room temperature, washed 4× and blocked for 1 h at 37° C. in 2% BSA containing blocking buffer. Refolded HLA-A*02:01/MLA-001 monomers served as standards, covering the range of 15-500 ng/ml. Peptide-MHC monomers of the UV-exchange reaction were diluted 100-fold in blocking buffer. Samples were incubated for 1h at 37° C., washed four times, incubated with 2 μg/ml HRP conjugated anti-β2m for 1h at 37° C., washed again and detected with TMB solution that is stopped with […]. Absorption was measured at 450 nm.

Peptide exchange (MHC class I binding score, peptide exchange yield), ++++ (>75% = ++++):
309 (SDDLRNVTW; listed as Homo sapiens) [compound 309], 320 (AENPLNIFY; listed as Homo sapiens) [compound 320], 138 (KEAPNIVTL; listed as Homo sapiens) [compound 138], 166 (EEQDFINNRY; listed as Homo sapiens) [compound 166], 196 (TELEVKIRDW; listed as Homo sapiens) [compound 196], 385 (LEHPFLVNLW; listed as Homo sapiens) [compound 385], 184 (EEQLLQKVM; listed as Homo sapiens) [compound 184], 241 (QELLDIANYL; listed as Homo sapiens) [compound 241], 182 (EELHAALSEW; listed as Homo sapiens) [compound 182], 102 (TELADLDAAW; listed as Homo sapiens) [compound 102], 189 (ALNGDIYVW; listed as Homo sapiens) [compound 189]

Peptide exchange (MHC class I binding score, peptide exchange yield), ++ (>20% = ++):
265 (EDNLIHKF; listed as Homo sapiens) [compound 265], 26 (EESSSPVDEY; listed as Homo sapiens) [compound 26], 131 (RESHLTEIRQY; listed as Homo sapiens) [compound 131], 379 (AENRVGKMEA; listed as Homo sapiens) [compound 379], 262 (YENILNAI; listed as Homo sapiens) [compound 262], 328 (HENGVLTKF; listed as Homo sapiens) [compound 328], 10 (SEYPTKNYV; listed as Homo sapiens) [compound 10], 373 (REDPIVYEI; listed as Homo sapiens) [compound 373], 274 (DEIDKLTGY; listed as Homo sapiens) [compound 274]

Peptide exchange (MHC class I binding score, peptide exchange yield), + (>10% = +):
96 (MDELEEGESY; listed as Homo sapiens) [compound 96], 227 (ALTEDSIDDTF; listed as Homo sapiens) [compound 227], 234 (TEEPQRLFY; listed as Homo sapiens) [compound 234], 133 (IEAPKLMVV; listed as Homo sapiens) [compound 133], 120 (VTEGAVEVKY; listed as Homo sapiens) [compound 120], 177 (LEEPMPFFY; listed as Homo sapiens) [compound 177]

Peptide exchange (MHC class I binding score, peptide exchange yield), +++ (>50 = +++):
212 (SEASVYLFRF; listed as Homo sapiens) [compound 212], 211 (LEMLDAHRL; listed as Homo sapiens) [compound 211], 299 (AEVQIARKL; listed as Homo sapiens) [compound 299], 158 (VEEERYTGQW; listed as Homo sapiens) [compound 158], 345 (AEYQAAILHL; listed as Homo sapiens) [compound 345], 222 (SEDTIHTHL; listed as Homo sapiens) [compound 222], 231 (AEALVDGKWQEF; listed as Homo sapiens) [compound 231], 139 (AESDFSNNML; listed as Homo sapiens) [compound 139], 77 (QETLAESTW; listed as Homo sapiens) [compound 77], 122 (GESVSWHLF; listed as Homo sapiens) [compound 122], 93 (SEAGLTANQY; listed as Homo sapiens) [compound 93], 445 (QEVGEITNL; listed as Homo sapiens) [compound 445], 423 (KEAINLLKNY; listed as Homo sapiens) [compound 423], 456 (SESPIRISV; listed as Homo sapiens) [compound 456], 134 (IEIKDRLQL; listed as Homo sapiens) [compound 134], 412 (EESFDSKFY; listed as Homo sapiens) [compound 412], 367 (TEFAVKLKI; listed as Homo sapiens) [compound 367], 383 (EEMERDLDMY; listed as Homo sapiens) [compound 383], 84 (AETSYVKVLEY; listed as Homo sapiens) [compound 84], 126 (SEASQSPQY; listed as Homo sapiens) [compound 126], 290 (AECILSKRL; listed as Homo sapiens) [compound 290], 427 (AEMLGSVVGNW; listed as Homo sapiens) [compound 427], 118 (SEVPVDSHYY; listed as Homo sapiens) [compound 118], 384 (LDGIPTAGW; listed as Homo sapiens) [compound 384], 443 (EEYAGQITL; listed as Homo sapiens) [compound 443], 148 (KESDAGRYY; listed as Homo sapiens) [compound 148], 275 (GEQPPEGQW; listed as Homo sapiens) [compound 275], 378 (QELFLQEVRM; listed as Homo sapiens) [compound 378], 186 (EEIFAHLGL; listed as Homo sapiens) [compound 186], 238 (VEDDNYKLSL; listed as Homo sapiens) [compound 238], 200 (KELSVFKKF; listed as Homo sapiens) [compound 200], 162 (EAYDIELNKW; listed as Homo sapiens) [compound 162], 439 (VEVGDRTDW; listed as Homo sapiens) [compound 439], 426 (AESLFREAL; listed as Homo sapiens) [compound 426], 298 (KEVASNSEL; listed as Homo sapiens) [compound 298], 176 (GETQQHIQL; listed as Homo sapiens) [compound 176], 273 (TEFELLHQV; listed as Homo sapiens) [compound 273]

Reference: patent US12065471B2, “B*44 restricted peptides for use in immunotherapy against cancers and related methods” (Immatics Biotechnologies GmbH, priority 2018, dated 2024)
